Paper PMC7022552, “Structural and Functional Analyses of Human ChaC2 in Glutathione Metabolism” (Biomolecules, 2019)
“And” between values parts separate entries of the source, which are not always exact repeats. Equal values may be shown once.

Columns and labels:
[1] = biological target: human ChaC2 (wild type) (human) (UniProt Q8WUX2); test: crystal structure; wild type ChaC2 crystals, hanging drop, 14% PEG 8000, 14% ethylene glycol, 100 mM HEPES pH 7.5, 22 °C; three molecules in the asymmetric unit, each in a crystallographic dimer with a molecule of a nearby asymmetric unit
[2] = biological target: the molecule itself; test: SEC; HiLoad 16/600 Superdex 75 pg, 20 mM Tris-HCl pH 7.1, 150 mM NaCl, 5 mM DTT, 2% glycerol, 1 mL/min, calibrated with molecular weight standards

stoichiometry N [1]	Molecule	stoichiometry N [2]
2	human ChaC2 (wild type) (from UniProt Q8WUX2 1-184) (enzyme)	–
–	human ChaC1 (enzyme, UniProt Q9BUX1 1-222, looked up, human ChaC1, cDNA from the Korean Human Gene Bank, cloned into pET-21a between BamHI and XhoI; source: E. coli C41 (DE3), purified (Ni2+ HiTrap Chelating HP, HiTrap Q HP, Superdex 75 pg)) MKQESAAPNTPPTSQSPTPSAQFPRNDGDPQALWIFGYGSLVWRPDFAYSDSRVGFVRGYSRRFWQGDTFHRGSDKMPGRVVTLLEDHEGCTWGVAYQVQGEQVSKALKYLNVREAVLGGYDTKEVTFYPQDAPDQPLKALAYVATPQNPGYLGPAPEEAIATQILACRGFSGHNLEYLLRLADFMQLCGPQAQDEHLAAIVDAVGTMLPCFCPTEQALALV	2 and 4
